In this assay the target is T1, human PD-L1-Fc (R&D Systems) (human, UniProt Q9NZQ7 19-239).
T1 construct: Bought from R&D Systems; Biotinylated in-house for the phage selection; also called huPD-L1-Fc; human PD-L1-Fc antigen; not shown: Fc part of the bought fusion
Kind of assay: soluble Affimer ELISA. Background: An ELISA detects its analyte on a solid surface through an enzyme-linked reagent.

The values that follow come from US20250243277A1 (AVACTA LIFE SCIENCES, published 2025).

T1 sequence (Q9NZQ7 19-239 limits assumed): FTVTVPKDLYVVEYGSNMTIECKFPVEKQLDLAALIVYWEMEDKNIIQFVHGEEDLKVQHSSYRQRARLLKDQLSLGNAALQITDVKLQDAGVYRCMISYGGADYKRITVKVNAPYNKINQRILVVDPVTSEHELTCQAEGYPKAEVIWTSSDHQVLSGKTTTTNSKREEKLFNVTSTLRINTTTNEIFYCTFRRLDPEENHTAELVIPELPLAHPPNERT

B1: Clone 155 (designed binder)
chain: MIPGGLSEAKPATPEIQEIVDKVKPQLEEKTGETYGKLEAVQYKTQVVWRTGQKWQVGTNYYIKVRAGDNKYMHLKVFKSLAGHYEVHIGEDLVLTGYQVDKNKDDELTGF
notes: His-tagged
For the molecule B1, the binding result was “binds”.

B2: Clone 142 (designed binder)
chain: MIPGGLSEAKPATPEIQEIVDKVKPQLEEKTGETYGKLEAVQYKTQVVSWYKLWSYSGTNYYIKVRAGDNKYMHLKVFKSLFEGRHKDPEEDLVLTGYQVDKNKDDELTGF
notes: His-tagged
For the molecule B2, the binding result is “binds”.

B3: Clone 163 (designed binder)
chain: MIPGGLSEAKPATPEIQEIVDKVKPQLEEKTGETYGKLEAVQYKTQVVISASEIRWYGTNYYIKVRAGDNKYMHLKVFKSLKAFANDYYKEDLVLTGYQVDKNKDDELTGF
notes: His-tagged
Turning to B3, the binding result is reported as “binds”.

B4: Clone 152 (designed binder)
chain: MIPGGLSEAKPATPEIQEIVDKVKPQLEEKTGETYGKLEAVQYKTQVVRAQLRPWVAGTNYYIKVRAGDNKYMHLKVFKSLGWNEEARPPEDLVLTGYQVDKNKDDELTGF
notes: His-tagged
Consider B4, for which the binding result is “binds”.

B5: Clone 157 (designed binder)
chain: MIPGGLSEAKPATPEIQEIVDKVKPQLEEKTGETYGKLEAVQYKTQVVIYYPIWDFHGTNYYIKVRAGDNKYMHLKVFKSLFWGDLKTEDLVLTGYQVDKNKDDELTGF
notes: His-tagged
On to B5, for which the binding result is reported as “binds”.

B6: Clone 144 (designed binder)
chain: MIPGGLSEAKPATPEIQEIVDKVKPQLEEKTGETYGKLEAVQYKTQVVAYQSPPYHFGTNYYIKVRAGDNKYMHLKVFKSLRQIAGYIAIEDLVLTGYQVDKNKDDELTGF
notes: His-tagged
B6: the binding result is “binds”.

B7: Clone 17 (designed binder)
chain: MIPGGLSEAKPATPEIQEIVDKVKPQLEEKTGETYGKLEAVQYKTQVVIVYTIWNYVGTNYYIKVRAGDNKYMHLKVFKSLTPQTETEHEEDLVLTGYQVDKNKDDELTGF
notes: His-tagged
As to B7, the binding result is listed as “binds”.

B8: Clone 165 (designed binder)
chain: MIPGGLSEAKPATPEIQEIVDKVKPQLEEKTGETYGKLEAVQYKTQVVNEAESSRFLGTNYYIKVRAGDNKYMHLKVFKSLHDFTLKWKFEDLVLTGYQVDKNKDDELTGF
notes: His-tagged
On to B8, for which the binding result is “binds”.

B9: Clone 145 (designed binder)
chain: MIPGGLSEAKPATPEIQEIVDKVKPQLEEKTGETYGKLEAVQYKTQVVYKNVGPWVNGTNYYIKVRAGDNKYMHLKVFKSLYRTNRGHEREDLVLTGYQVDKNKDDELTGF
notes: His-tagged
For B9, the binding result is given as “binds”.

B10: Clone 141 (designed binder)
chain: MIPGGLSEAKPATPEIQEIVDKVKPQLEEKTGETYGKLEAVQYKTQVVDLHTLKSGVGTNYYIKVRAGDNKYMHLKVFKSLYIKHHLWWIEDLVLTGYQVDKNKDDELTGF
notes: His-tagged
As to B10, the binding result is “binds”.

B11: Clone 166 (designed binder)
chain: MIPGGLSEAKPATPEIQEIVDKVKPQLEEKTGETYGKLEAVQYKTQVVVAGLKWHWEGTNYYIKVRAGDNKYMHLKVFKSLIYASQYDYREDLVLTGYQVDKNKDDELTGF
notes: His-tagged
In the case of B11, the binding result was “binds”.

B12: Clone 148 (designed binder)
chain: MIPGGLSEAKPATPEIQEIVDKVKPQLEEKTGETYGKLEAVQYKTQVVRDYDPFPYTGTNYYIKVRAGDNKYMHLKVFKSLWRGPGPYAIEDLVLTGYQVDKNKDDELTGF
notes: His-tagged
Consider B12, for which the binding result is on record as “binds”.

B13: Clone 171 (designed binder)
chain: MIPGGLSEAKPATPEIQEIVDKVKPQLEEKTGETYGKLEAVQYKTQVVIDHQNHPTEGTNYYIKVRAGDNKYMHLKVFKSLWPWLHSTEQEDLVLTGYQVDKNKDDELTGF
notes: His-tagged
Consider B13, for which the binding result is “binds”.

B14: Clone 156 (designed binder)
chain: MIPGGLSEAKPATPEIQEIVDKVKPQLEEKTGETYGKLEAVQYKTQVVIQQLYKQTWGTNYYIKVRAGDNKYMHLKVFKSLDYQHWPYDFEDLVLTGYQVDKNKDDELTGF
notes: His-tagged
As to B14, the binding result was “binds”.

B15: Clone 150 (designed binder)
chain: MIPGGLSEAKPATPEIQEIVDKVKPQLEEKTGETYGKLEAVQYKTQVVREVGLWRFQGTNYYIKVRAGDNKYMHLKVFKSLYIGYAGDAQEDLVLTGYQVDKNKDDELTGF
notes: His-tagged
For B15, the binding result is reported as “binds”.

B16: Clone 177 (designed binder)
chain: MIPGGLSEAKPATPEIQEIVDKVKPQLEEKTGETYGKLEAVQYKTQVVISEDSWWPHGTNYYIKVRAGDNKYMHLKVFKSLNWFHQPWQREDLVLTGYQVDKNKDDELTGF
notes: His-tagged
As for B16, the binding result was “binds”.

B17: Clone 143 (designed binder)
chain: MIPGGLSEAKPATPEIQEIVDKVKPQLEEKTGETYGKLEAVQYKTQVVDWPSHAKFWGTNYYIKVRAGDNKYMHLKVFKSLFLPDKDDPFEDLVLTGYQVDKNKDDELTGF
notes: His-tagged
Consider B17, for which the binding result is given as “binds”.

B18: Clone 173 (designed binder)
chain: MIPGGLSEAKPATPEIQEIVDKVKPQLEEKTGETYGKLEAVQYKTQVVDWPSHAKFWGTNYYIKVRAGDNKYMHLKVFKSLFLPDKDDPFEDLVLTGYQVDKNKDDELTGF
notes: His-tagged
For B18, the binding result is “binds”.

B19: Clone 167 (designed binder)
chain: MIPGGLSEAKPATPEIQEIVDKVKPQLEEKTGETYGKLEAVQYKTQVVYRNKQWYNEGTNYYIKVRAGDNKYMHLKVFKSLKIGYLEFVLEDLVLTGYQVDKNKDDELTGF
notes: His-tagged
Turning to B19, the binding result is “binds”.

B20: Clone 208 (designed binder)
chain: MIPGGLSEAKPATPEIQEIVDKVKPQLEEKTGETYGKLEAVQYKTQVVQWKKTQYFFGTNYYIKVRAGDNKYMHLKVFKSLRIGYLEFEIEDLVLTGYQVDKNKDDELTGF
notes: His-tagged
In the case of B20, the binding result is listed as “binds”.

B21: Clone 169 (designed binder)
chain: MIPGGLSEAKPATPEIQEIVDKVKPQLEEKTGETYGKLEAVQYKTQVVYANIGPWLYGTNYYIKVRAGDNKYMHLKVFKSLFKHRQQLHYTEDLVLTGYQVDKNKDDELTGF
notes: His-tagged
With B21, the binding result is reported as “binds”.

B22: Clone 151 (designed binder)
chain: MIPGGLSEAKPATPEIQEIVDKVKPQLEEKTGETYGKLEAVQYKTQVVWEEVNWRNWGTNYYIKVRAGDNKYMHLKVFKSLVPIHDHLRNEDLVLTGYQVDKNKDDELTGF
notes: His-tagged
Turning to B22, the binding result is “binds”.

B23: Clone 159 (designed binder)
chain: MIPGGLSEAKPATPEIQEIVDKVKPQLEEKTGETYGKLEAVQYKTQVVHVHWAWNYLGTNYYIKVRAGDNKYMHLKVFKSLRNFYTFPHEEDLVLTGYQVDKNKDDELTGF
notes: His-tagged
Regarding B23, the binding result is “binds”.

B24: Clone 172 (designed binder)
chain: MIPGGLSEAKPATPEIQEIVDKVKPQLEEKTGETYGKLEAVQYKTQVVSVFQYTYKFGTNYYIKVRAGDNKYMHLKVFKSLNNKPPHNDLEDLVLTGYQVDKNKDDELTGF
notes: His-tagged
On to B24, for which the binding result is on record as “binds”.

B25: Clone 68 (designed binder)
chain: MIPGGLSEAKPATPEIQEIVDKVKPQLEEKTGETYGKLEAVQYKTQVVRVQGLWNFQGTNYYIKVRAGDNKYMHLKVFKSLGHHGDHEKWEDLVLTGYQVDKNKDDELTGF
notes: His-tagged
Consider B25, for which the binding result is recorded as “binds”.

B26: Clone 164 (designed binder)
chain: MIPGGLSEAKPATPEIQEIVDKVKPQLEEKTGETYGKLEAVQYKTQVVRIWGFWAFQGTNYYIKVRAGDNKYMHLKVFKSLGHESGQNLWEDLVLTGYQVDKNKDDELTGF
notes: His-tagged
In the case of B26, the binding result is “binds”.

B27: Clone 146 (designed binder)
chain: MIPGGLSEAKPATPEIQEIVDKVKPQLEEKTGETYGKLEAVQYKTQVVSKRSAWHWTGTNYYIKVRAGDNKYMHLKVFKSLFWNAPDDRQEDLVLTGYQVDKNKDDELTGF
notes: His-tagged
Regarding B27, the binding result is on record as “binds”.

B28: Clone 153 (designed binder)
chain: MIPGGLSEAKPATPEIQEIVDKVKPQLEEKTGETYGKLEAVQYKTQVVYPWSWNGHYGTNYYIKVRAGDNKYMHLKVFKSLIKYPFARAEEDLVLTGYQVDKNKDDELTGF
notes: His-tagged
For the molecule B28, the binding result is “binds”.

B29: Clone 223 (designed binder)
chain: MIPGGLSEAKPATPEIQEIVDKVKPQLEEKTGETYGKLEAVQYKTQVVFPWDQENYYGTNYYIKVRAGDNKYMHLKVFKSLIKEPFIKNVEDLVLTGYQVDKNKDDELTGF
notes: His-tagged
On to B29, for which the binding result is “binds”.

B30: Clone 158 (designed binder)
chain: MIPGGLSEAKPATPEIQEIVDKVKPQLEEKTGETYGKLEAVQYKTQVVDNVANIVPHGTNYYIKVRAGDNKYMHLKVFKSLGWNYEHKWPEDLVLTGYQVDKNKDDELTGF
notes: His-tagged
As to B30, the binding result is recorded as “binds”.

B31: Clone 170 (designed binder)
chain: MIPGGLSEAKPATPEIQEIVDKVKPQLEEKTGETYGKLEAVQYKTQVVHQFQEIKWFGTNYYIKVRAGDNKYMHLKVFKSLFHRTPGSTTEDLVLTGYQVDKNKDDELTGF
notes: His-tagged
Consider B31, for which the binding result is on record as “binds”.

B32: Clone 160 (designed binder)
chain: MIPGGLSEAKPATPEIQEIVDKVKPQLEEKTGETYGKLEAVQYKTQVVGPWYFGSAWGTNYYIKVRAGDNKYMHLKVFKSLWENFHKLEKEDLVLTGYQVDKNKDDELTGF
notes: His-tagged
For the molecule B32, the binding result is reported as “binds”.

B33: Clone 147 (designed binder)
chain: MIPGGLSEAKPATPEIQEIVDKVKPQLEEKTGETYGKLEAVQYKTQVVVHITVEWEGTNYYIKVRAGDNKYMHLKVFKSLIYQRHTQSREDLVLTGYQVDKNKDDELTGF
notes: His-tagged
On to B33, for which the binding result is “binds”.
